Experimental data taken from article PMC4259812 (The Journal of Cell Biology, 2014).

Target: T1, human raver1 RRM1-3 domains (residues 39-321) (human, UniProt Q8IY67 39-321)
T1 sequence: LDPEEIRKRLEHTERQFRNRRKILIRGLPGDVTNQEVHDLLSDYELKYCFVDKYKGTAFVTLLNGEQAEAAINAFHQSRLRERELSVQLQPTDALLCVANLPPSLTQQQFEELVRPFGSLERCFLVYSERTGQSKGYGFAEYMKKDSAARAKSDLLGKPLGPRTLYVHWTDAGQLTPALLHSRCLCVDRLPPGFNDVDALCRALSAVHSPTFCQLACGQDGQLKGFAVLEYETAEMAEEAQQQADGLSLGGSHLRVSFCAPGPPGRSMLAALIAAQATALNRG
Assay: SEC

B1: human vinculin tail domain (Vt), wild type, residues 891-1,066 (domain or fragment)
chain: GEVINQPMMMAARQLHDEARKWSSKGNDIIAAAKRMALLMAEMSRLVRGGSGTKRALIQCAKDIAKASDEVTRLAKEVAKQCTDKRIRTNLLQVCERIPTISTQLKILSTVKATMLGRTNISDEESEQATEMLVHNAQNLMQSVKETVREAEAASIKIRTDAGFTLRWVRKTPWYQ
binding result: binds
